# Assay results as given in patent US20230265179A1 (TWIST BIOSCIENCE, published 2023).
# Numbering of substitutions follows the chain as printed.
# B1: IL1RL1-11 (Fc fusion, not shown: a dimerising Fc or GST)
# VHH: EVQLVESGGGLVQPGGSLRLSCAASGRTFNWYAMGWFRQAPGKEREWVSSIGIAGTPTFYADSVKGRFTISADNSKNTAYLQMNSLKPEDTAVYYCAAVSSNSETFDWGQGTLVTVSS
# notes: VHH-Fc on IgG2 Fc
# B2: IL1RL1-5 (Fc fusion, not shown: a dimerising Fc or GST)
# VHH: EVQLVESGGGLVQPGGSLRLSCAASGRTFSSIVMGWFRQAPGKEREMVAVIIDSRTTKYADSVKGRFTISADNSKNTAYLQMNSLKPEDTAVYYCAAVGGATTVTASEWDWGQGTLVTVSS
# notes: VHH-Fc on IgG2 Fc
# B3: IL1RL1-4 (Fc fusion, not shown: a dimerising Fc or GST)
# VHH: B2 VHH with R27N, T28A, S30R, I32T, M47F
# notes: VHH-Fc on IgG2 Fc
# B4: IL1RL1-74 (Fc fusion, not shown: a dimerising Fc or GST)
# VHH: B2 VHH with R27F, I32A, V33I, M47L
# notes: VHH-Fc on IgG2 Fc
# B5: IL1RL1-53 (Fc fusion, not shown: a dimerising Fc or GST)
# VHH: B2 VHH with F29P, S31I, V33A, M47L
# notes: VHH-Fc on IgG2 Fc
# B6: IL1RL1-15 (Fc fusion, not shown: a dimerising Fc or GST)
# VHH: EVQLVESGGGLVQPGGSLRLSCAASGRTYSISAMGWFRQAPGKEREWVSSIGIAGTPTFYADSVKGRFTISADNSKNTAYLQMNSLKPEDTAVYYCAAGVTGGAAYGWGQGTLVTVSS
# notes: VHH-Fc on IgG2 Fc
# B7: IL1RL1-14 (Fc fusion, not shown: a dimerising Fc or GST)
# VHH: EVQLVESGGGLVQPGGSLRLSCAASGDISSIVAMGWFRQAPGKEREWVSSIDTGGGSNIVYADSVKGRFTISADNSKNTAYLQMNSLKPEDTAVYYCAAGLLDVQYVRQAAGYSWGQGTLVTVSS
# notes: VHH-Fc on IgG2 Fc
# B8: IL1RL1-1 (Fc fusion, not shown: a dimerising Fc or GST)
# VHH: EVQLVESGGGLVQPGGSLRLSCAASGFTLDAWPMSWFRQAPGKEREVVAVIYTSDGSTYYADSVKGRFTISADNSKNTAYLQMNSLKPEDTAVYYCAASKWYGGFGDTDIEWGQGTLVTVSS
# notes: VHH-Fc on IgG2 Fc
# B9: IL1RL1-7 (Fc fusion, not shown: a dimerising Fc or GST)
# VHH: EVQLVESGGGLVQPGGSLRLSCAASGRTSNIYAMGWFRQAPGKEREPVASITPGGRFPAYADSVKGRFTISADNSKNTAYLQMNSLKPEDTAVYYCSTLYYSGLDPVDYWGQGTLVTVSS
# notes: VHH-Fc on IgG2 Fc
# B10: IL1RL1-6 (Fc fusion, not shown: a dimerising Fc or GST)
# VHH: EVQLVESGGGLVQPGGSLRLSCAASGRTISTYGMGWFRQAPGKEREWVSGINRDGSTYYADRVKGRFTISADNSKNTAYLQMNSLKPEDTAVYYCALRRLSPPPLLDWGQGTLVTVSS
# notes: VHH-Fc on IgG2 Fc
# B11: IL1RL1-10 (Fc fusion, not shown: a dimerising Fc or GST)
# VHH: EVQLVESGGGLVQPGGSLRLSCAASGRTSNIYAMGWFRQAPGKEREWVASISTSGSTITPYADSVKGRFTISADNSKNTAYLQMNSLKPEDTAVYYCAAVYVSTWGNGYDWGQGTLVTVSS
# notes: VHH-Fc on IgG2 Fc
# B12: IL1RL1-90 (Fc fusion, not shown: a dimerising Fc or GST)
# VHH: EVQLVESGGGLVQPGGSLRLSCAASGVTLDLYAMGWFRQAPGKEREAVASISSSGSSIYYADSVKGRFTISADNSKNTAYLQMNSLKPEDTAVYYCAANYGGSVLYNWGQGTLVTVSS
# notes: VHH-Fc on IgG2 Fc
# B13: IL1RL1-8 (Fc fusion, not shown: a dimerising Fc or GST)
# VHH: B12 VHH with V27R, L29S, D30N, L31I, A47F, I51L, S53A, S57L, I58T, Y59W
# notes: VHH-Fc on IgG2 Fc
# B14: IL1RL1-86 (Fc fusion, not shown: a dimerising Fc or GST)
# VHH: EVQLVESGGGLVQPGGSLRLSCAASGGTFSTYAMGWFRQAPGKEREWVASISTSGSTITPYADSVKGRFTISADNSKNTAYLQMNSLKPEDTAVYYCAAIAYEEGVYRWDWGQGTLVTVSS
# notes: VHH-Fc on IgG2 Fc
# B15: IL1RL1-82 (Fc fusion, not shown: a dimerising Fc or GST)
# VHH: B14 VHH with G27R, Y32L
# notes: VHH-Fc on IgG2 Fc
# B16: IL1RL1-18 (Fc fusion, not shown: a dimerising Fc or GST)
# VHH: B14 VHH with G27V, F29L, S30D, T31L, Y102H
# notes: VHH-Fc on IgG2 Fc
# B17: IL1RL1-52 (Fc fusion, not shown: a dimerising Fc or GST)
# VHH: B14 VHH with F29I
# notes: VHH-Fc on IgG2 Fc
# B18: IL1RL1-81 (Fc fusion, not shown: a dimerising Fc or GST)
# VHH: B14 VHH with G27V, F29L, S30D, T31L
# notes: VHH-Fc on IgG2 Fc
# B19: IL1RL1-2 (Fc fusion, not shown: a dimerising Fc or GST)
# VHH: B14 VHH with T31A
# notes: VHH-Fc on IgG2 Fc
# B20: IL1RL1-12 (Fc fusion, not shown: a dimerising Fc or GST)
# VHH: EVQLVESGGGLVQPGGSLRLSCAASGSIFGLNAMGWFRQAPGKEREFVAAISRFGSTDYADSVKGRFTISADNSKNTAYLQMNSLKPEDTAVYYCARSYCTADSCYSSWFDPWGQGTLVTVSS
# notes: VHH-Fc on IgG2 Fc
# B21: IL1RL1-3 (Fc fusion, not shown: a dimerising Fc or GST)
# VHH: EVQLVESGGGLVQPGGSLRLSCAASGRTFSMGWFRQAPGKEREWVSSIGIAGTPTFYADSVKGRFTISADNSKNTAYLQMNSLKPEDTAVYYCASTDDYGVDWGQGTLVTVSS
# B22: IL1RL1-262 (antibody, V domains shown)
# VH: EVQLLESGGGLVQPGGSLRLSCAASGFTFSRYAMNWVRQAPGKGLEWVSAISGSGGNTYYADSVKGRFTISRDNSKNTLYLQMNSLRAEDTAVYYCARVWRNSLDYWGQGTLVTVSS
# VL: DIQMTQSPSSLSASVGDRVTITCSGDRLGEKYVSWYQQKPGKAPKLLIYENNNRPSGVPSRFSGSGSGTDFTLTISSLQPEDFATYYCVARAVRGNPHVLFGQGTKVEIK
# notes: IgG2
# B23: IL1RL1-257 (antibody, V domains shown)
# VH: EVQLLESGGGLVQPGGSLRLSCAASGFTFSPRRMSWVRQAPGKGLEWVSAITGSGGSTYYADSVKGRFTISRDNSKNTLYLQMNSLRAEDTAVYYCARGRLFDYWGQGTLVTVSS
# VL: DIQMTQSPSSLSASVGDRVTITCRASQSISGYLNWYQQKPGKAPKLLIYGNNNRPSGVPSRFSGSGSGTDFTLTISSLQPEDFATYYCSQNTHVPYTFGQGTKVEIK
# notes: IgG2
# B24: IL1RL1-269 (antibody, V domains shown)
# VH: EVQLLESGGGLVQPGGSLRLSCAASGFTFDRYRMMWVRQAPGKGLEWVSAITGSGGSTYYADSVKGRFTISRDNSKNTLYLQMNSLRAEDTAVYYCAKGLRRFDYWGQGTLVTVSS
# VL: DIQMTQSPSSLSASVGDRVTITCRASQSVDRYFNWYQQKPGKAPKLLIYGKNIRPSGVPSRFSGSGSGTDFTLTISSLQPEDFATYYCGQSYRYPLTFGQGTKVEIK
# notes: IgG2
# B25: IL1RL1-270 (antibody, V domains shown)
# VH: EVQLLESGGGLVQPGGSLRLSCAASGFTFSRYFMGWVRQAPGKGLEWVSGITRSGSTNYRDSVKGRFTISRDNSKNTLYLQMNSLRAEDTAVYYCAKGPGTRGDYWGQGTLVTVSS
# VL: DIQMTQSPSSLSASVGDRVTITCRASQPIGPDLLWYQQKPGKAPKLLIYGASRLQRGVPSRFSGSGSGTDFTLTISSLQPEDFATYYCASRNGWNHVVFGQGTKVEIK
# notes: IgG2
# Molecular target: T1, IL1RL1 (UniProt Q01638 19-328, limits assumed)
# T1 construct: SPR analyte
# T1 sequence (looked up): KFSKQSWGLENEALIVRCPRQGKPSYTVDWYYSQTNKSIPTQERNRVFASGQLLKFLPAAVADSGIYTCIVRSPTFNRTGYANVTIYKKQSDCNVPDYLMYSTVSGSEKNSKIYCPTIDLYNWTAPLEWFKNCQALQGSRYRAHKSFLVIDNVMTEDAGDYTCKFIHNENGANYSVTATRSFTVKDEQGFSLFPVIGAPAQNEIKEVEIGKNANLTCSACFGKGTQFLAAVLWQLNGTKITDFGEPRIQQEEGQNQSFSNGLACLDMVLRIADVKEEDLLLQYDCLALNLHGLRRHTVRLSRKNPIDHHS
# Test: SPR (Carterra LSA), antibody amine-coupled, 1:1 model;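 also: HC30M sensor chip at 25 °C in HBS-TE, analyte at rising concentrations in buffer containing 0.5 mg/mL BSA, 5 min association then 15 min dissociation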
# Method: SPR experiments were performed on a Carterra LSA SPR biosensor equipped with a HC30M chip at 25° C. in HBS-TE. Antibodies were diluted to 10 μg/mL and amine-coupled to the sensor chip by EDC/NHS activation, followed by ethanolamine HCl quenching. Increasing concentrations of analyte were flowed over the sensor chip in HBS-TE with 0.5 mg/mL BSA with 5-minute association and 15-minute dissociation. Following each injection cycle the surface was regenerated with 2× 30-second injections of IgG elution buffer (Thermo). Data were analyzed in Carterra's Kinetics Tool software with 1:1 binding model.
Binder,Kd [pM],koff [s⁻¹],kon [M⁻¹ s⁻¹]
B1,12900,0.000681,52800
B2,846,0.000162,191000
B3,≤ 57.4,≤ 1e-05,174000
B4,≤ 50.5,≤ 1e-05,198000
B5,927,0.000267,289000
B6,3230,0.00041,127000
B7,≤ 74.4,≤ 1e-05,134000
B8,584,0.000101,172000
B9,≤ 75.7,≤ 1e-05,132000
B10,149,3.7e-05,248000
B11,2020,0.000241,119000
B12,≤ 78,≤ 1e-05,128000
B13,≤ 166,≤ 1e-05,60300
B14,≤ 76.2,≤ 1e-05,131000
B15,≤ 128,≤ 1e-05,78400
B16,312,3.95e-05,126000
B17,121,3.48e-05,288000
B18,285,4.51e-05,159000
B19,265,3.11e-05,118000
B20,4080,0.000326,80100
B21,≤ 52.4,≤ 1e-05,191000

# Molecular target: T2, IL1RL1 over-expressed on Expi293 cells (UniProt Q01638 19-556, limits assumed)
# T2 construct: whole, on cells; Target of the flow cytometry MFI ratio (over-expressing cells over parent cells); also called cytokine over-expressing Expi293 cells
# T2 sequence (looked up): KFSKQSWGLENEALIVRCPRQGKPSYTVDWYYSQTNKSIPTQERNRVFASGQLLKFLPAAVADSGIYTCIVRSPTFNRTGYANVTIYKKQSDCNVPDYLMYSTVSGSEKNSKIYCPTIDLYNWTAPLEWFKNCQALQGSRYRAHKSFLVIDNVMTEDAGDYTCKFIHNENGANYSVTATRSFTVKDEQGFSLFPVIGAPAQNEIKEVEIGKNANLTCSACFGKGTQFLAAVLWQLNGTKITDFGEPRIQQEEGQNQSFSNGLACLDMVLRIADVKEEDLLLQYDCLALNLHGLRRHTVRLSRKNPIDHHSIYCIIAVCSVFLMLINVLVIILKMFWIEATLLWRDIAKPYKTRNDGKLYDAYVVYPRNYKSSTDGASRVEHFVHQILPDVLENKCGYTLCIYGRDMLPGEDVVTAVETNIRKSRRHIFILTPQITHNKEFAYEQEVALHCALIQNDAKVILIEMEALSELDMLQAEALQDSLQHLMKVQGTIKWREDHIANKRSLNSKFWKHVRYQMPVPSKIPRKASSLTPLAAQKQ
# Test: flow cytometry, 100 nM antibody, over-expressing Expi293 / parent cells
# Method: All incubations and washes were in buffer containing PBS+1% BSA. MFI Ratio is defined by the mean fluorescence intensity (MFI) of the cytokine over-expressing Expi293 cell over the Expi293 parent cell. […] EC50 was calculated in GraphPad Prism.
row,Binder,100 nM FACS (MFI Ratio) [MFI ratio]
1,B1,446
2,B22,6.04
3,B2,508
4,B3,472
5,B4,521
6,B5,441
7,B6,331
8,B23,1.38
9,B24,0.85
10,B25,0.31
11,B7,515
12,B8,660
13,B9,586
14,B10,128
15,B11,398
16,B12,105
17,B13,298
18,B14,204
19,B15,344
20,B16,277
21,B17,225
22,B18,217
23,B19,277
24,B20,437
25,B21,492
